# From patent US6479237 (INSTITUT NATIONAL DE LA SANTE ET DE LA RECHERCHE MEDICALE …, dated 2002)
# B1: VP16-MAT1 (other)
# chain: STAPPTDVSLGDELHLDGEDVAMAHADALDDFDLDMLGDGDSPGPGFTPHDSAPYGALDMADFEFEQMFTDALGIDEYGGMDDQGCPRCKTTKYRNPSLKLMVNVCGHTLCESCVDLLFVRGAGNCPECGTPLRKSNFRVQLFEDPTVDKEVEIRKKVLKIYNKREEDFPSLREYNDFLEEVEEIVFNLTNNVDLDNTKKKMEIYQKENKDVIQKNKLKLTREQEELEEALEVERQENEQRRLFIQKEEQLQQILKRKNKQAFLDELESSDLPVALLLAQHKDRSTQLEMQLEKPKPVKPVTFSTGIKMGQHISLAPIHKLEEALYEYQPLQIETYGPHVPELEMLGRLGYLNHVRAASPQDLAGGYTSSLACHRALQDAFSGLFWQPS
# B2: LexA-Cdk7 (other, UniProt P0A7C2 1-202, looked up)
# chain: MKALTARQQEVFDLIRDHISQTGMPPTRAEIAQRLGFRSPNAAEEHLKALARKGVIEIVSGASRGIRLLQEEEEGLPLVGRVAAGEPLLAQQHIEGHYQVDPSLFKPNADFLLRVSGMSMKDIGIMDGDLLAVHKTQDVRNGQVVVARIDDEVTVKRLKKQGNKVELLPENSEFKPIVVDLRQQSFTIEGLAVGVIRNGDWLMALDVKSRAKRYEKLDFLGEGQFATVYKARDKNTNQIVAIKKIKLGHRSEAKDGINRTALREIKLLQELSHPNIIGLLDAFGHKSNISLVFDFMETDLEVIIKDNSLVLTPSHIKAYMLMTLQGLEYLHQHWILHRDLKPNNLLLDENGVLKLADFGLAKSFGSPNRAYTHQVVTRWYRAPELLFGARMYGVGVDMWAVGCILAELLLRVPFLPGDSDLDQLTRIFETLGTPTEEQWPDMCSLPDYVTFKSFPGIPLHHIFSAAGDDLLDLIQGLFLFNPCARITATQALKMKYFSNRPGPTPGCQLPRPNCPVETLKEQSNPALAIKRKRTEALEQGGLPKKLIF
# notes: Fusion protein expressed in yeast L40 from the ADH constitutive promoter; also called Lex-Cdk7
# B3: VP16 fused with p44 (other)
# chain: MDEEPERTKRWEGGYERTWEILKEDESGSLKATIEDILFKAKRKRVFEHHGQVRLGMMRHLYVVVDGSRTMEDQDLKPNRLTCTLKLLEYFVEEYFDQNPISQIGIIVTKSKRAEKLTELSGNPRKHITSLKKAVDMTCHGEPSLYNSLSIAMQTLKHMPGHTSREVLIIFSSLTTCDPSNIYDLIKTLKAAKIRVSVIGLSAEVRVCTVLARETGGTYHVILDESHYKELLTHHVSPPPASSSSECSLIRMGFPQHTIASLSDQDAKPSFSMAHLDGNTEPGLTLGGYFCPQCRAKYCELPVECKICGLTLVSAPHLARSYHHLFPLDAFQEIPLEEYNGERFCYGCQGELKDQHVYVCAVCQNVFCVDCDVFVHDSLHCCPGCIHKIPAPSGV
# notes: One of the five TFIIH core sub-units put into pVP16 as specificity controls
# B4: VP16 fused with p34 (other)
# chain: MVSDEDELNLLVIVVDANPIWWGKQALKESQFTLSKCIDAVMVLGNSHLFMNRSNKLAVIASHIQESRFLYPGKNGRLGDFFGDPGNPPEFNPSGSKDGKYELLTSANEVIVEEIKDLMTKSDIKGQHTETLLAGSLAKALCYIHRMNKEVKDNQEMKSRILVIKAAEDSALQYMNFMNVIFAAQKQNILIDACVLDSDSGLLQQACDITGGLYLKVPQMPSLLQYLLWVFLPDQDQRSQLILPPPVHVDYRAACFCHRNLIEIGYVCSVCLSIFCNFSPICTTCETAFKISLPPVLKAKKKKLKVSA
# notes: as for B3
# B5: VP16 alone (not containing any fused protein) (other)
# chain: STAPPTDVSLGDELHLDGEDVAMAHADALDDFDLDMLGDGDSPGPGFTPHDSAPYGALDMADFEFEQMFTDALGIDEYGG
# notes: Negative control
# Columns and labels:
# LexA-Cdk7 [1] = molecular target: B2; assay: cell-based or functional assay
# VP16 fused with XPD = molecular target: T1, VP16 fused with XPD (UniProt P18074 1-760); assay: yeast three-hybrid (L40), LexA-Cdk7 with Cyclin H expressed; growth test and β-galactosidase test
# T1 construct: One of the five TFIIH core sub-units put into pVP16 as specificity controls
# VP16 fused with XPB = molecular target: T2, VP16 fused with XPB (UniProt P19447 1-782); assay: as above
# T2 construct: One of the five TFIIH core sub-units put into pVP16 as specificity controls
# T2 sequence (P19447 whole entry, the tested form may be a part): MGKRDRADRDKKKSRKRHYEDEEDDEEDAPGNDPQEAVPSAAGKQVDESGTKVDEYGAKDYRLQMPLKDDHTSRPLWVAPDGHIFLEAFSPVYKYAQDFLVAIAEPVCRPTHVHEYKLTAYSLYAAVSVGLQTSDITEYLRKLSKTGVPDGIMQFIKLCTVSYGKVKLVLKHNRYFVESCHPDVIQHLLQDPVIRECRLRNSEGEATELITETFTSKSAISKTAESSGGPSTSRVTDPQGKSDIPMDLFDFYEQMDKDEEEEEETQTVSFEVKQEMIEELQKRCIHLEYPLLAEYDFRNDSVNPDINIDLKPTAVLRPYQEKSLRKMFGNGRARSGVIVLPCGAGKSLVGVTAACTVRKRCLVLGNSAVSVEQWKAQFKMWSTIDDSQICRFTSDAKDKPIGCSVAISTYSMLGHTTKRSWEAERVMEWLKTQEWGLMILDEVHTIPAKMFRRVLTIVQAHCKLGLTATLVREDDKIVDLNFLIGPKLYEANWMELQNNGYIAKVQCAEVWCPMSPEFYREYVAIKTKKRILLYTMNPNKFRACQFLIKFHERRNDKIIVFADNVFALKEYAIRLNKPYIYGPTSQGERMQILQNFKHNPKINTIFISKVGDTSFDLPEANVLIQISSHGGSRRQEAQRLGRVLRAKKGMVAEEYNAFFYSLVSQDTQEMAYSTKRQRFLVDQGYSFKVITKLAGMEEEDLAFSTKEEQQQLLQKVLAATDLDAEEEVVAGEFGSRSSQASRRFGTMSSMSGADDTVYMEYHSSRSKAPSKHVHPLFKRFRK
# LexA-Cdk7 [2] = molecular target: B2; assay: as above
Binder,binding result (LexA-Cdk7 [2]),also measured
B1,–,inhibition of the β-Gal activity by methionine (repression of Cyclin H) (LexA-Cdk7 [1]): > 6 fold
B2,–,binding result (VP16 fused with XPD): no binding; binding result (VP16 fused with XPB): no binding
B3,no binding,–
B4,no binding,–
B5,no binding,–
